B1: Hst3p: transcriptional silencer (protein, UniProt P53687 1-447, looked up)
NAD-dependent histone …: MTSVSPSPPASRSGSMCSDLPSSLQTEKLAHIIGLDADDEVLRRVTKQLSRSRRIACLTGAGISCNAGIPDFRSSDGLYDLVKKDCSQYWSIKSGREMFDISLFRDDFKISIFAKFMERLYSNVQLAKPTKTHKFIAHLKDRNKLLRCYTQNIDGLEESIGLTLSNRKLPLTSFSSHWKNLDVVQLHGDLKTLSCTKCFQTFPWSRYWSRCLRRGELPLCPDCEALINKRLNEGKRTLGSNVGILRPNIVLYGENHPSCEIITQGLNLDIIKGNPDFLIIMGTSLKVDGVKQLVKKLSKKIHDRGGLIILVNKTPIGESSWHGIIDYQIHSDCDNWVTFLESQIPDFFKTQDQIKKLRQLKREASDLRKQMKAQKDSIGTPPTTPLRTAQGIDIQGNNELNTKIKSLNTVKRKILSPENSSEEDEEENLDTRKRAKIRPTFGDNQAS
B2: Tos8p: yeast transcription factor suggested to be involved in RNA splicing and processing (protein, UniProt P53147 1-276, looked up)
Homeobox protein TOS8: MGTSIVNLNQKIELPPIQVLFESLNRENETKPHFEERRLYQPNPSFVPRTNIAVGSPVNPVPVSSPVFFIGPSPQRSIQNHNAIMTQNIRQYPVIYNNNREVISTGERNYIITVGGPPVTSSQPEYEHISTPNFYQEQRLAQPHPVNESMMIGGYTNPQPISISRGKMLSGNISTNSVRGSNNGYSAKEKKHKAHGKRSNLPKATVSILNKWLHEHVNNPYPTVQEKRELLAKTGLTKLQISNWFINARRRKIFSGQNDANNFRRKFSSSTNLAKF
B3: Cmk2p: yeast calcium/calmodulin-dependent serine/threonine protein kinase (protein, UniProt P22517 1-447, looked up)
Calcium/calmodulin-dependent …: MPKESEVINSEFHVDVQDPERLNGHPVAKFINKLSGQPESYVNRTNYIFGRTLGAGSFGVVRQARKLSTNEDVAIKILLKKALQGNNVQLQMLYEELSILQKLSHPNIVSFKDWFESKDKFYIVTQLATGGELFDRILSRGKFTEVDAVEIIVQILGAVEYMHSKNVVHRDLKPENVLYVDKSENSPLVIADFGIAKQLKGEEDLIYKAAGSLGYVAPEVLTQDGHGKPCDIWSIGVITYTLLCGYSPFIAESVEGFMEECTASRYPVTFHMPYWDNISIDVKRFILKALRLNPADRPTATELLDDPWITSKRVETSNILPDVKKGFSLRKKLRDAIEIVKLNNRIKRLRNMYSLGDDGDNDIEENSLNESLLDGVTHSLDDLRLQSQKKGGELTEEQMKLKSALTKDAFVQIVKAATKNKHKVLAGEEEDDSKKTLHDDRESKSED
B4: Cmp2p: one of the two yeast calcineurins (protein)
chain: MSSDAIRNTEQINAAIKIIENKTERPQSSTTPIDSKASTVAAANSTATETSRDLTQYTLDDGRVVSTNRRIMNKVPAITSHVPTDEELFQPNGIPRHEFLRDHFKREGKLSAAQAARIVTLATELFSKEPNLISVPAPITVCGDIHGQYFDLLKLFEVGGDPATTSYLFLGDYVDRGSFSFECLIYLYSLKLNFNDHFWLLRGNHECKHLTSYFTFKNEMLHKYNLDIYEKCCESFNNLPLAALMNGQYLCVHGGISPELNSLQDINNLNRFREIPSHGLMCDLLWADPIEEYDEVLDKDLTEEDIVNSKTMVPHHGKMAPSRDMFVPNSVRGCSYAFTYRAACHFLQETGLLSIIRAHEAQDAGYRMYKNTKTLGFPSLLTLFSAPNYLDTYNNKAAILKYENNVMNIRQFNMTPHPYWLPDFMDVFTWSLPFVGEKVTEMLVAILNICTEDELENDTPVIEELVGTDKKLPQAGKSEATPQPATSASPKHASILDDEHRRKALRNKILAVAKVSRMYSVLREETNKVQFLKDHNSGVLPRGALSNGVKGLDEALSTFERARKHDLINEKLPPSLDELKNENKKYYEKVWQKVHEHDAKNDSK
modifications: left off: a dimerising Fc or GST
notes: one of the two yeast calcineurins
B5: Dst1p: yeast protein with a role in transcription elongation (protein, UniProt P07273 1-309, looked up)
Transcription elongation …: MDSKEVLVHVKNLEKNKSNDAAVLEILHVLDKEFVPTEKLLRETKVGVEVNKFKKSTNVEISKLVKKMISSWKDAINKNKRSRQAQQHHQDHAPGNAEDKTTVGESVNGVQQPASSQSDAMKQDKYVSTKPRNSKNDGVDTAIYHHKLRDQVLKALYDVLAKESEHPPQSILHTAKAIESEMNKVNNCDTNEAAYKARYRIIYSNVISKNNPDLKHKIANGDITPEFLATCDAKDLAPAPLKQKIEEIAKQNLYNAQGATIERSVTDRFTCGKCKEKKVSYYQLQTRSADEPLTTFCTCEACGNRWKFS
B6: Smd1p: U1 snRNP component (protein, UniProt Q02260 1-146, looked up)
Small nuclear …: MKLVNFLKKLRNEQVTIELKNGTTVWGTLQSVSPQMNAILTDVKLTLPQPRLNKLNSNGIAMASLYLTGGQQPTASDNIASLQYINIRGNTIRQIILPDSLNLDSLLVDQKQLNSLRRSGQIANDPSKKRRRDFGAPANKRPRRGL
B7: Bur6p: alpha-subunit of the NC2 (Dr1/Drap1) repressor of class II transcription (protein, UniProt P40096 1-142, looked up)
Negative cofactor 2 complex …: MADQVPVTTQLPPIKPEHEVPLDAGGSPVGNMGTNSNNNNELGDVFDRIKTHFPPAKVKKIMQTDEDIGKVSQATPVIAGRSLEFFIALLVKKSGEMARGQGTKRITAEILKKTILNDEKFDFLREGLCVEEGQTQPEEESA

Assays:
Type in all cases: binding
RNA-polyA+ = assay: Yeast proteome chip probed with biotin-labeled polyA+ RNA; conditions: Cy3-streptavidin
Description: (§1) Protein-DNA and protein-RNA interactions are important for many fundamental biological functions such as transcription regulation, chromosome segregation and maintenance, and RNA transport and processing (Williamson, 2000, Nat. Struct. Biol. 7(10):834-7). To explore the possibility of using a proteome chip to identify proteins that bind to DNA or RNA molecules, total yeast genomic DNA was labeled using Cy3-CTP and Klenow fragment, and polyA^+ was labeled using a biotinylated psoralen-derivative (31). Each probe was incubated with a different proteome chip (FIG. 3A).
(§2) The protein-nucleic acid interaction was assayed as follows. The nucleic acid robes were labeled as described by Winzeler et al. (1999, Science 285:901). Blocked proteome chips were washed three to five times in PBS buffer, and the extra liquid on the glass surface was removed by tapping the slides vertically on a KIMWIPE™. 200 μl of labeled nuclei acid probe ([…] poly(dC/dG); 100-300 mM NaCl; 50-300 mM HEPES, pH 7.0-8.5; 10 mM MgCl2) was added to the proteome chip and immediately covered by a hydrophobic plastic cover slip (GRACE BIO-LABS™, USA). After trapped air bubbles were removed, the chip was incubated in a humidity chamber in the dark at room temperature (“RT”) for one hour. To remove the cover slip, the chip was immersed into large volume of PBS buffer(>50 ml), so that the slip would float away. The chip was then moved to a second PBS bath (>50 ml) and washed 3×5 min with shaking in the dark at RT. To completely remove the liquid on the chip, the chip was spun to dryness at 1500-2000 rpm for 5-10 min at RT.
RNA-polyA^+ from exponentially growing cells was labeled with biotin and used to probe the proteome microarray. The positive signals were detected using Cy3-streptavidin. […] In addition to proteins that likely directly or indirectly interact with RNA, we found two transcription factors (Bur6p and Tos8p), one transcriptional silencer (Hst3p), six other proteins encoded by known ORFs, and seven proteins from uncharacterized ORFs.

calmodulin = molecular target: T1, calmodulin (Homo sapiens, UniProt P0DP23); assay: Yeast proteome chip probed with biotinylated calmodulin; conditions: biotinylated calmodulin in the presence of calcium
T1 construct: purchased CalBiochem, USA
Description: To test for protein-protein interactions, the yeast proteome was probed with calmodulin (11). Calmodulin is a highly conserved calcium-binding protein involved in many calcium-regulated cellular processes and has many known physical partners (Hook et al., 2001, Annu. Rev. Pharmacol. Toxicol. 41:471). The calmodulin probe was biotinylated, and bound probe was detected using Cy3-labeled streptavidin. As a control, the yeast proteome was probed with Cy3-labeled streptavidin alone.
Generally, protein-protein interactions can be assayed as follows. Blocked proteome chips are washed three to five times in PBS buffer, and the extra liquid on the glass surface is removed by tapping the slides vertically on a KIMWIPE™. 200 ∞l of biotinylated protein probe is added to the proteome chip and immediately covered by a hydrophobic plastic cover slip (GRACE BIO-LABS™, USA). After trapped air bubbles are removed, the chip is incubated in a humidity chamber at room temperature (RT) for one hour. To remove the cover slip, the chip is immersed into large volume of PBS buffer (>50 ml), and the slip should float away. The chip is then moved to a second PBS bath (>50 ml) and washed 3×5 min with shaking at RT. After removing extra liquid on the surface of the chip, at least 150 μl of Cy3- or Cy5-conjugated streptavidin (PIERCE™, USA; 1:2000 to 1:4000 dilution) is added to the surface and covered by a hydrophobic plastic cover slip (GRACE BIO-LABS™, USA). The chip is incubated for greater than 30 min in the dark at RT. The chip is then washed as described above. To completely remove the liquid on the chip, the chip is spun to dryness at 1500-2000 rpm for 5-10 min at RT.
• 1. S. Fields, Y. Kohara, D. J. Lockhart, Proc. Natl. Acad. Sci. 96, 8825 (1999); A. Goffeau et al., Science 274, 563 (1996). • 2 P. Ross-Macdonald et al., Nature 402, 413 (1999); J. L., DeRisi, V. R. Iyer, P. O. Brown, Science 278, 680 (1997); E. A. Winzeler et al., Science 285, 901 (1999). P. Uetz et al., Nature 403, 623 (2000); T. Ito et al., Proc. Natl. Acad. Sci. USA. 97, 1143 (2000) • 3 H. Zhu, M. Snyder, Curr. Opin. Chem. Biol. 5, 40 (2001). • 4 M. R. Martzen et al., Science 286, 1153 (1999). • 5 H. Zhu et al., Nat. Genet. 26, 283 (2000). • 6 G. MacBeath, S. L. Schreiber, Science 289, 1760 (2000). • 7 A. Caveman, J. Cell Sci. 113, 3543 (2000). • 8 P. Arenkov et al., Anal. Biochem 278, 123 (2000). • 9 D. A. Mitchell, T. K. Marshall, R. J. Deschenes, Yeast 9, 715 (1993). The expression vector pEGH was created by inserting an RGS-HisX6 epitope tag between the GST gene and the polycloning site of pEG(KG). The yeast ORFs were cloned using the strategy described previously (5), except every step was done in a 96-well format. Plasmid DNAs confirmed by DNA sequencing were reintroduced into both yeast (Y258) and E. coli (DH5a). […] 0.1 mM calcium was present in buffers in all subsequent steps. The chip was washed three times with PBS at RT. Cy3-conjugated streptavidin (Jackson IR, USA) (1:5000 dilution) was added to the chip and incubated for 30 min at RT. After extensive washing, the chip was spun dry and scanned using a microarray scanner; the data was subsequently acquired with the GENEPIX™ array densitometry software (Axon, USA). • 12 S. S. Hook, A. R. Means, Annu. Rev. […]

total yeast genomic DNA = assay: Yeast proteome chip probed with labeled genomic DNA; conditions: Cy3-labeled genomic DNA, visual inspection
Description: as §1, §2

| Molecule | binding of polyA+ RNA probe (RNA-polyA+) | calmodulin binding (calmodulin) | binding of genomic DNA probe (total yeast genomic DNA) |
| --- | --- | --- | --- |
| B1 | identified | – | – |
| B2 | identified | – | – |
| B3 | – | identified | – |
| B4 | – | identified | – |
| B5 | – | identified | – |
| B6 | identified | – | – |
| B7 | bound both the DNA and RNA probes | – | identified |

Reference: US20050182242A1, “Global analysis of protein activities using proteome chips” (priority 2001, published 2005)
